The nature of the series: protein stability index of a GFP-peptide fusion (GPS, HEK-293T) (PSI 1-6); higher = more stable.
The mark [1] stands for this setting: treatment: DMSO, c terminus: a fixed tail appended.
[2] abbreviates: treatment: MLN4924 1 uM, 8 h, c terminus: a fixed tail appended.

± gives the standard deviation.

This note sets out measurements from the supplement of paper PMC10567573.
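Further: 24-mer peptide tiles fused after GFP, lentivirally expressed, FACS-sorted into six equal bins by GFP/DsRed ratio, decoded by Illumina sequencing, PSI is the read-weighted mean bin number.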

For QVESRWGYSGTSDRIRFTVNRRIS [BTBD1], the protein stability index was 3.38 ± 0.23 under setting [1] and 3.53 ± 0.37 under setting [2].

For QVITQTGVPGQPLNFKAEPESETS [PTPRD], the protein stability index was determined as 5.18 ± 0.24 under setting [1] and 5.31 ± 0.25 under setting [2].

Take QVRIRYLGERRAEPHSLLHLSRLC [SPSB2]: the protein stability index worked out at 2.34 ± 0.2 under setting [1] and 2.22 ± 0.22 under setting [2].

Turning to QVVTVHLQTSLENGTRVQEEPELV [FKBP8], the protein stability index is, setting by setting: under setting [1], 4.18 ± 0.15; under setting [2], 4.37 ± 0.31.

With QWGTVCDDDFSIHAAHVVCRELGY [LOXL2], the protein stability index was 2.47 ± 0.36 under setting [1] and 2.38 ± 0.39 under setting [2].

For QYSVEGGKETLTPSELRDLVTQQL [S100A14], the protein stability index amounted to 4.59 ± 0.23 under setting [1] and 4.55 ± 0.13 under setting [2].

QYVYIAVMDYLPISSTSTKRTYWP [PLD5] displayed a protein stability index under setting [1] of 3.01 ± 0.59 and a protein stability index under setting [2] of 2.74 ± 0.29.

Turning to QYWLDGKIIAVGVIDILPNCVSSV [ATE1], the protein stability index by setting is: under setting [1], 2.93 ± 0.54; under setting [2], 2.95 ± 0.66.

Turning to QYYRWLNYGGVIKNYFQHREFSFT [PRIM1], the protein stability index reads like this: under setting [1], 2.34 ± 0.64; under setting [2], 1.98 ± 0.47.

With RAEIENLHRTFDPHFLRVPCWKIT [MOG], the protein stability index turned out to be 2.27 ± 0.22 under setting [1] and 2.42 ± 0.22 under setting [2].

On to RAFAQIGPARSGFRLETLAGLRSR [MIR22HG], for which the protein stability index is, setting by setting: under setting [1], 3.23 ± 0.53; under setting [2], 3.2 ± 0.3.

As for RALATSNARAQQRAAAQQRRSFLN [GNAS], the protein stability index under setting [1] is 4.02 ± 0.15 and the protein stability index under setting [2] was found to be 4.3 ± 0.13.

Regarding RALRKMVSNMSGPSGEEEAKVGPG [CBY2], the protein stability index reads like this: under setting [1], 4.82 ± 0.23; under setting [2], 4.87 ± 0.25.

As to RAPAEKPRGARCSNGFPERDPPRP [GCH1], the protein stability index turned out to be 4.2 ± 0.3 under setting [1] and 4.43 ± 0.17 under setting [2].

As for RDANGWTLLHFSAARGKERCVRVF [ASB7], the protein stability index by setting is: under setting [1], 2.29 ± 0.29; under setting [2], 2.43 ± 0.43.

For RDILVEADGAWVVKMFYSFQDKRN [STK38L], the protein stability index runs as follows: under setting [1], 2.07 ± 0.29; under setting [2], 2.3 ± 0.4.

For the sequence RDRNLLQEDKALWEEEKALWVEER [CCDC70], the protein stability index turned out to be 5.007 ± 0.024 under setting [1] and 5.04 ± 0.28 under setting [2].

On to RDSTARRPRPQGRSVSEPRDQHPQ [RTN2], for which the protein stability index runs as follows: under setting [1], 5.305 ± 0.037; under setting [2], 5.23 ± 0.098.

Take RDYAPPSRGYAYRDNGHSNRDEHS [RBMY1A1]: the protein stability index under setting [1] is 4.59 ± 0.11 and the protein stability index under setting [2] was found to be 4.57 ± 0.36.

Turning to REAFPSWSSRSPQERSRVLNQVAD [ALDH8A1], the protein stability index is, setting by setting: under setting [1], 4.2 ± 0.33; under setting [2], 4.233 ± 0.03.

Consider REARKRALARKQAQEQLRPQTPEP [RSPH3], for which the protein stability index is 5.04 ± 0.28 under setting [1] and 5.12 ± 0.15 under setting [2].

With RETVLIETQLKACASFIRTRLLLQ [C8orf76], the protein stability index reads like this: under setting [1], 2.88 ± 0.57; under setting [2], 2.9 ± 0.71.

In the case of REVALLRRLEAFEHPNVVRLMDVC [CDK4], the protein stability index under setting [1] was determined as 2.52 ± 0.15 and the protein stability index under setting [2] amounted to 2.68 ± 0.2.

RFFGPNAEISQPPALSQLVNLYLG [TCF25]: the protein stability index reads like this: under setting [1], 3.05 ± 0.19; under setting [2], 2.96 ± 0.36.

As for RGSKMFKLRQMRVEKFIYENHPDV [MYOZ1], the protein stability index amounted to 2.9 ± 0.37 under setting [1] and 2.52 ± 0.12 under setting [2].

RGTGQLNRFVQLSGRPHLPGKKKI [KLHDC10]: the protein stability index under setting [1] amounted to 2.99 ± 0.2 and the protein stability index under setting [2] is 3.03 ± 0.26.

As to RHYAYLRDSLSHLVPALRLPGRKL [INTS4], the protein stability index by setting is: under setting [1], 2.31 ± 0.16; under setting [2], 2.49 ± 0.45.

With RIAAVEALCMLAQSSPSFAEKCLD [INTS4], the protein stability index under setting [1] was determined as 2.46 ± 0.49 and the protein stability index under setting [2] amounted to 2.2 ± 0.53.

In the case of RIFTFICKDSESNKHLCYVFDSEK [GULP1], the protein stability index is, setting by setting: under setting [1], 2.06 ± 0.56; under setting [2], 2.21 ± 0.31.

Regarding RKILVLDLDETLIHSHHDGVLRPT [CTDNEP1], the protein stability index was 2.46 ± 0.2 under setting [1] and 2.61 ± 0.17 under setting [2].

As for RKKRLLDRKVLLKSDSPTGDVLLD [GOLPH3L], the protein stability index runs as follows: under setting [1], 4.22 ± 0.14; under setting [2], 4.14 ± 0.19.

As to RKLSPTEPKNYGSYSTQASAAAAT [SCAMP3], the protein stability index by setting is: under setting [1], 4.37 ± 0.17; under setting [2], 4.38 ± 0.14.

Take RKQILLRGKLKKTEEELRRIQTQK [ZC2HC1C]: the protein stability index reads like this: under setting [1], 3.99 ± 0.24; under setting [2], 4.2 ± 0.26.

For RLEINVLKKIKEKDKENKFLCVLM [CLK3], the protein stability index runs as follows: under setting [1], 2.57 ± 0.52; under setting [2], 2.1 ± 0.082.

The sequence RLKKEEEDRIVTQNRVFAYLCKRV [CEP70] displayed a protein stability index under setting [1] of 2.55 ± 0.31 and a protein stability index under setting [2] of 2.86 ± 0.43.

In turn, RLQVKEHQHEEIQNVRNHIHSCFS [ATL3] gave a protein stability index under setting [1] of 3.21 ± 0.17 and a protein stability index under setting [2] of 3.23 ± 0.21.

RMEGSQEVVNMAVIVPKEEGVISV [WDFY2]: the protein stability index runs as follows: under setting [1], 3.23 ± 0.36; under setting [2], 3.45 ± 0.17.

Regarding RPGPQSVPLQLSAHWQCGATLTQV [FCHO1], the protein stability index runs as follows: under setting [1], 2.21 ± 0.23; under setting [2], 2.43 ± 0.2.

As to RPRYKADVPDLQSVCSCTCYRSQD [KCNK9], the protein stability index under setting [1] is 3.34 ± 0.41 and the protein stability index under setting [2] amounted to 3.67 ± 0.23.

With RPSSILPPRRGVSGDRDENSFSLN [MAP2], the protein stability index was determined as 4.67 ± 0.09 under setting [1] and 4.63 ± 0.12 under setting [2].

RQILHLITMMALKVLGELNILPNT [TENT5D] came in with a protein stability index under setting [1] of 3.42 ± 0.64 and a protein stability index under setting [2] of 2.81 ± 0.1.

As to RRLRDMVERPHSGLPGKVFACLSV [KCNG1], the protein stability index is, setting by setting: under setting [1], 2.47 ± 0.49; under setting [2], 2.4 ± 0.49.

As for RRWGKRKNKPKMNYEKLSRGLRYY [ETS1], the protein stability index came to 2.44 ± 0.33 under setting [1] and 2.68 ± 0.38 under setting [2].

Turning to RRWKLQVLDLRKNSHQDFWTVWSG [PRAME], the protein stability index by setting is: under setting [1], 2.46 ± 0.73; under setting [2], 2.07 ± 0.44.

As to RSHPDNAIPIKSWFSDPSDTALLN [CTDNEP1], the protein stability index under setting [1] stood at 3.73 ± 0.18 and the protein stability index under setting [2] came to 3.87 ± 0.18.

Regarding RSSSCGDTELLGQATLPVGSPSRP [C2CD2L], the protein stability index is 5.04 ± 0.15 under setting [1] and 5.04 ± 0.13 under setting [2].

For RSVIEVPAVPEEILKRLLKEQHLW [DLC1], the protein stability index worked out at 2.48 ± 0.36 under setting [1] and 2.69 ± 0.37 under setting [2].

Turning to RSWAMLFASGGFQVKLYDIEQQQI [CRYL1], the protein stability index stood at 2.16 ± 0.34 under setting [1] and 2.28 ± 0.67 under setting [2].

Consider RTAMPYGGYEKASKRMTFQMPKFD [MYOZ1], for which the protein stability index reads like this: under setting [1], 2.76 ± 0.18; under setting [2], 2.86 ± 0.23.

RTARALLDRDALKQSLVVAVQDHG [PCDHGA10] displayed a protein stability index under setting [1] of 3.72 ± 0.18 and a protein stability index under setting [2] of 3.87 ± 0.34.

Regarding RTELLKDAIGEGKVTLRIRNVRFS [MOG], the protein stability index reads like this: under setting [1], 2.68 ± 0.4; under setting [2], 2.79 ± 0.42.

The sequence RTHTGEKPYTCSVCGKSFSRTTCL [ZNF8] came in with a protein stability index under setting [1] of 2.92 ± 0.31 and a protein stability index under setting [2] of 3.35 ± 0.54.

For RTISCHVQNGTYLQRVLQNCPWPM [EMID1], the protein stability index turned out to be 2.12 ± 0.22 under setting [1] and 2.02 ± 0.17 under setting [2].

Turning to RVKFKSQQHRQGRSHHLEMVIQLL [PTGFR], the protein stability index by setting is: under setting [1], 2.44 ± 0.19; under setting [2], 2.21 ± 0.17.

As to RVLKAYTLYRPEEGYCQAQAPIAA [TBC1D10A], the protein stability index stood at 2.08 ± 0.29 under setting [1] and 2.16 ± 0.21 under setting [2].

With RYSCESRIRSYLREVSSYPSTVGA [DFFB], the protein stability index by setting is: under setting [1], 2.6 ± 0.27; under setting [2], 2.73 ± 0.46.

For RYSGKILKNNETLVQHGVKPQEIV [IQUB], the protein stability index runs as follows: under setting [1], 3.42 ± 0.21; under setting [2], 3.71 ± 0.53.

For the sequence RYVSNWDFFIVGCEVIFCVFIFYY [PKD2L1], the protein stability index reads like this: under setting [1], 3.07 ± 0.34; under setting [2], 2.89 ± 0.32.

Consider SAAYYLNDLDRIAQPNYIPTQQDV [GNAI1], for which the protein stability index is, setting by setting: under setting [1], 3.7 ± 0.28; under setting [2], 3.73 ± 0.24.

In turn, SACSFTNSDMQILTASGDGTCALW [GNB5] displayed a protein stability index under setting [1] of 2.33 ± 0.27 and a protein stability index under setting [2] of 2.15 ± 0.22.

With SAPYSAAFLELPHGSGGSGYPAAP [TBX6], the protein stability index came to 3.27 ± 0.15 under setting [1] and 3.55 ± 0.27 under setting [2].

As for SCLLLQLRREKPSEEMVKMVLSRP [INTS3], the protein stability index runs as follows: under setting [1], 2.64 ± 0.67; under setting [2], 2.42 ± 0.34.

With SDHEMREEEKLKAEEIRIKGKYNI [KCNK9], the protein stability index runs as follows: under setting [1], 5.11 ± 0.21; under setting [2], 5.22 ± 0.3.

With SDLLNDQDLLDVIRIKLDPCHPTV [EDARADD], the protein stability index was 2.67 ± 0.23 under setting [1] and 2.78 ± 0.21 under setting [2].

In turn, SEATLPAQMSTLHVSPPPSADPAR [PDLIM4] displayed a protein stability index under setting [1] of 5.26 ± 0.17 and a protein stability index under setting [2] of 5.17 ± 0.18.

For SEDSFCRRHPGLGKAFPSGCSAVS [TRAF3IP2], the protein stability index runs as follows: under setting [1], 3.66 ± 0.24; under setting [2], 3.46 ± 0.33.

On to SEHFKTTSQKVARKFWWKNVKMIV [VAMP8], for which the protein stability index runs as follows: under setting [1], 2.69 ± 0.24; under setting [2], 2.61 ± 0.71.

On to SEKRRDPPNGPNLPMATVDIKNPE [WASL], for which the protein stability index runs as follows: under setting [1], 5.35 ± 0.11; under setting [2], 5.28 ± 0.17.

Consider SFGNCTYNLTILDCLQGIRKGLQH [CDC14A], for which the protein stability index worked out at 2.38 ± 0.36 under setting [1] and 2.33 ± 0.44 under setting [2].

On to SFSTGAGGWSNHHFCVILLGFLP [BET1L], for which the protein stability index turned out to be 2.99 ± 0.39 (treatment: DMSO, c terminus: native) and 2.99 ± 0.53 (treatment: MLN4924 1 uM, 8 h, c terminus: native).

For the sequence SGRRGPPPPPRSRGPPRGLRGGRG [RBMX], the protein stability index by setting is: under setting [1], 4.87 ± 0.25; under setting [2], 5.14 ± 0.3.

SHPRVQSGCDKEALLTGGGSENRN [RNF180]: the protein stability index stood at 4.77 ± 0.31 under setting [1] and 4.65 ± 0.24 under setting [2].
